Test results: paper PMC4027176, “Modulating TRAP-mediated transcription termination by AT during transcription of the leader region of the Bacillus subtilis trp operon” (Nucleic Acids Research, 2014)
Where a chain is given by its changes, count along the chain named. Names and notes keep the numbering of the source.

B1: Anti-TRAP (AT), wild type, trimer (natural protein)
chain: MVIATDDLEVACPKCERAGEIEGTPCPACSGKGVILTAQGYTLLDFIQKHLNK
B2: AT containing a Cys substitution at residue 7 (D7C AT) (natural protein, B. subtilis, UniProt O31466 1-53, looked up)
chain: B1 chain with D7C
notes: Anti-TRAP (AT) of Bacillus subtilis with Asp7 replaced by Cys; source: purified as described by Chen and Gollnick (19)
B3: trp RNA binding Attenuation Protein (TRAP), wild type, 11mer (natural protein, B. subtilis, UniProt P19466 1-75, looked up)
chain: MNQKHSSDFVVIKAVEDGVNVIGLTRGTDTKFHHSEKLDKGEVIIAQFTEHTSAIKVRGEALIQTAYGEMKSEKK
notes: 11 identical subunits of 75 amino acids in a ring; also called WT TRAP; TRAP 11mer; copies: 11
B4: His-tagged N20C (Asn20 replaced with Cys) TRAP (natural protein, B. subtilis, UniProt P19466 1-75, looked up)
chain: B3 chain with N20C
notes: TRAP of Bacillus subtilis (mtrB), 75 amino acid subunit, with Asn20 replaced by Cys; six histidine residues at the carboxy terminus of each subunit; Cross-linking was done in the presence of 1 mM tryptophan; also called N20C TRAP; N20C TRAP 11mer; source: purified using Ni-agarose; not shown: His6, C-terminal, kept; copies: 11

Legend:
[1] = molecular target: T1, TRAP (trp RNA binding Attenuation Protein), WT (Bacillus subtilis) (UniProt P19466); test: pull-down of blocked TEC, immunoblot; details: Filter binding: 16 mM Tris pH 8.0, 250 mM KCl, 1 mM tryptophan, 10 ug yeast RNA, 37 C, 20 min. Pull-down: 20 mM Tris-HCl pH 8.0, 6 mM MgCl2, 2 mM DTT, 100 mM …
T1 sequence: B3 chain

[2] = molecular target: T2, TRAP-AT = 1:1 complex, (N20C)1(WT)10 TRAP 11mer crosslinked with BMOE to one D7C AT trimer N20C;D7C (Bacillus subtilis) (UniProt P19466+P19466+O31466); test: filter binding; details: Filter binding: 16 mM Tris pH 8.0, 250 mM KCl, 1 mM tryptophan, 10 ug yeast RNA, 37 C, 20 min. Pull-down: 20 mM Tris-HCl pH 8.0, 6 mM MgCl2, 2 mM DTT, 100 mM …
T2 sequence 1: B3 chain
T2 sequence 2: B3 chain with N20C
T2 sequence 3: B1 chain with D7C

[3] = molecular target: T1, TRAP (trp RNA binding Attenuation Protein), WT (Bacillus subtilis); test: filter binding; details: Filter binding: 16 mM Tris pH 8.0, 250 mM KCl, 1 mM tryptophan, 10 ug yeast RNA, 37 C, 20 min. Pull-down: 20 mM Tris-HCl pH 8.0, 6 mM MgCl2, 2 mM DTT, 100 mM …
[4] = molecular target: T3, trp RNA binding Attenuation Protein (TRAP), wild type, 11mer (B. subtilis) (UniProt P19466)
T3 sequence: B3 chain

[5] = molecular target: the molecule itself; test: cross-linking; BMOE (0.04 mM, 8 Å sulfhydryl cross-linker); N20C TRAP 0.02 mM and/or D7C AT 0.08 mM; 1 mM tryptophan; PBS pH 7.2, 0.5 mM EDTA; 37°C 1 h; 15% SDS gel, Coomassie
[6] = molecular target: B4; test: pull-down; limiting His-tagged N20C TRAP mixed with 50-fold excess WT TRAP, denatured in 5 M guanidine-HCl 1 h at room temperature, renatured by dialysis in 50 mM phosphate pH 8.0; hetero-11mers held on Ni agarose; details: both partners purified

With “Eco116 nascent trp leader RNA (~11 repeats exposed)” the binding signal [1] was 100 % TRAP bound.

“GAGUUGAGUUGAGUUGAGUUGAGUUGAGUUGAGUUGAGUUGAGUUGAGUUGAGUU [(GAGUU)11 RNA]” was tested, and the Kd [2] was 3.7 nM and the Kd [3] was 0.55 nM.

For “Δ9-11Eco116 nascent trp leader RNA (7 repeats exposed)”, the binding signal [1] was 100 % TRAP bound.

With “Δ10-11Eco116 nascent trp leader RNA (8 repeats exposed)” the binding signal [1] was 100 % TRAP bound.

Molecule B1 has an in vitro transcription attenuation, Eco116 template; percent of transcripts terminated when AT was added after TRAP had bound the nascent transcript (post) [4] of 80%.

B2: binds [5].

B3: binds [6].

B4: binds [5].
